Results: patent US20190367616A1

How the values were obtained:
[1] = biological target: human PD-1 expressed on CHO-S cells (human) (UniProt Q15116); assay: flow cytometry PD-L1 blocking assay on CHO-S cells transiently expressing human PD-1; non-specific control antibody; ligand R-PE PD-L1-Fc (16.4 nM final)
[2] = biological target: cynomolgus PD-1 ECD (Acro Biosystems cat. no. PD1-05223) (cynomolgus) (UniProt B0LAJ3); assay: SPR, antibody on sensor, monomeric PD-1 ECD in solution
Sequence of cynomolgus PD-1 ECD (Acro Biosystems cat. no. PD1-05223) (cynomolgus) (B0LAJ3 entry or part of it limits assumed): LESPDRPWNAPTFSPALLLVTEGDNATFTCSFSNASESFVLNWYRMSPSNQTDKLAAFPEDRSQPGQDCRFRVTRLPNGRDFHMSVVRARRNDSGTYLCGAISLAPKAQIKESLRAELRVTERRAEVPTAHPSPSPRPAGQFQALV

Sequence of human PD-1 expressed on CHO-S cells (human) (Q15116 25-288): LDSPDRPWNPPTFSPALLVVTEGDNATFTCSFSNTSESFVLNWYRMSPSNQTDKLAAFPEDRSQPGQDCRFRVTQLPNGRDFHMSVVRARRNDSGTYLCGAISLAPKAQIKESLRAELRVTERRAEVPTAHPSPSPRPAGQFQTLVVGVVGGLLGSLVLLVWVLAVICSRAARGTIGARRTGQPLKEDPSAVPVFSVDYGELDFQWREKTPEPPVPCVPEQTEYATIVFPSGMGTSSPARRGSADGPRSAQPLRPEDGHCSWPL

% of cells hu IgG binding negative / PD-L1 binding negative (lower left quadrant) [1]	% of cells hu IgG binding negative / PD-L1 binding positive (lower right quadrant) [1]	% of cells hu IgG binding positive / PD-L1 binding negative (upper left quadrant, 'blocking') [1]	Kd [2]	Substance
66.5%	32.6%	0.28%		control mAb (antibody)
			1.5 nM	nivolumab analogue (antibody)
			3.6 nM	pembrolizumab/Keytruda (antibody)
